According to the supplement of paper PMC12764529:
± gives the half width of the 95% confidence interval.

Assay: folding stability dG unfold from chymotrypsin proteolysis; higher = more stable
Protocol: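 Folding stability of de novo designed mini-proteins (<80 aa, no Cys; designed by TrROS, TrMRF, ProteinMPNN and the joint model) was measured by cDNA display proteolysis with trypsin and chymotrypsin. Each protease was used at 11 concentrations in a threefold dilution series plus a no-protease condition. K50 was inferred by Bayesian fitting of sequencing counts, and dG unfold was derived against a sequence-predicted unfolded-state K50 (Tsuboyama et al. method). Sequences shown include variable-length N-terminal GS-type padding (SAGGSAGG...) inside a display construct carrying a PA tag. Rows were kept only if the AF2 dimer inter-PAE was >15, to exclude likely homo-oligomers.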

Sequence	folding stability dG unfold [kcal/mol]
SAGGKSKTIPIQPGDIRKVRDQLKELPDEGDNVRIHNPDNGKEREMDPDQLDDNVEKNGEPPTIHVRSAGGS [r16_263_TrROS]	-0.528 ± 0.072
SAGGSAGGSAGGAVGPDVGLPDAPVRFRNPSDDKVFTAYVPAGANFADLAKKYGVEIEPSAGGSAGGSAGGS [r10_202_TrMRF]	0.673 ± 0.14
SAGGMPKKITKLELLSETYDPLTNTYTVTVRATFDDGTEKVIELTLPRSEYEKLSKEEIKKRAIDLLLSAGG [r13_512_JUSTAS]	5.29 ± 0.12
SAGGSAGGSAGGLPINARPPNIAEVIRALRESGRYRVVEIRPFGDGAVIRVEKDGVPLESAGGSAGGSAGGS [r10_695_TrMRF]	0.769 ± 0.19
SGGMTPEQMIRHVLREARANNPGKKIEISWNSIQKNFPHPMSPEEIKKELKEEDGIKDVTIQPIPPNDPFSA [r9_738_TrROS]	-0.315 ± 0.29
SAGMPVLVSAPIPLARGPDGVARIDPALVRALAEAAGFTGRVESVEVRPLPDSYLVAVRLPDSVLLGESAGG [r19_398_TrMRF]	0.672 ± 0.077
SAGGSAGGSAEKDVKLLDVEELEEERVALVEFPVDPKVVRIKFDKDMTIDEIKKKAKELAGSAGGSAGGSAG [r3_142_TrMRF]	0.523 ± 0.03
SAGGSAGGSAARAYTDVDPVPSTLPNGERVVRVTEAGTGTTSDVPLEALADLDRGAGVTVPPSAGGSAGGSA [r18_288_JUSTAS]	0.538 ± 0.059
SAGGSANAEEIADWLQDRGFKEVEIEKDPENGNVTVEIRNPGGYEWELTINPKNPKITEIEPRPKKSAGGSA [r15_648_TrROS]	0.0797 ± 0.097
SAGGSAGGPIRIDPEDGRIRNNGQPYKFDKIEDIEPNENNKSIRLTIRMKNGKEHKQPIPADDISAGGSAGG [r6_682_TrROS]	-0.759 ± 1
SAGNPSLKLKTETQVEVTEVSESVLPDGGYTLTKSKFTVTTTIYDTTKPKVLSTETTEETETVATPLVSAGG [r19_136_JUSTAS]	0.442 ± 0.11
QIPPGAKVEFGNKEIEVPPGKELMIFNGHIMTQDDMEDMMKNMPDGMEMYRYKVEDNKGKIDKVRRMRMKPS [r1_304_TrROS]	-0.102 ± 0.57
SAGGDARVARARIRLTRPFPDEDGVVRWEPVVPPGDPVEVGLVLEDDTLVANAVFDGRPVLATVRLESAGGS [r16_500_TrMRF]	-0.407 ± 0.27
SAGGSAGGSAGGTVKELMKKLPFGAQIEIDEIEHDKGRIEIPIRVENMPPEWREKLRKLSAGGSAGGSAGGS [r10_733_TrROS]	0.0365 ± 0.15
SAGGAKVTEVKVENGYVTVTVDGKLVAKAPPPPPPPKVRVRNADGEEEERSLEDLLAENPENLEIELESAGG [r13_802_TrROS_Hall]	0.359 ± 0.1
SAGGSAGGSAGMVVETEVLETTPPGRTVRTRTTTREKTPDNAPVTTESESVTEVPSPPLESAGGSAGGSAGG [r11_689_JUSTAS]	0.615 ± 0.026
SAGGSAGGSSKTVPLKSEEEVKAVLEKLPPDAEYTVTDSEGKSKKVSPDEISFTPDPLTITVSSAGGSAGGS [r12_907_JUSTAS]	0.362 ± 0.043
SAGGSAGGSAGMRLLVEKPEGPVPTVTEVEVPLPEGDKARLEEVKEELKKKGYKKVIFLDSAGGSAGGSAGG [r11_196_JUSTAS]	-0.417 ± 0.37
SAGGSAGGSAGGGPPLPLRVEREEKVEKTPDDRVLIKRKVTVELPDRPLSEEESIEILLESAGGSAGGSAGG [r7_293_JUSTAS]	0.146 ± 0.2
SAGGSAGGMKTKTYTIPLSQVSSIDPSGTVSEEEVKALGLPPNFKATVVPLPGSEEAVEVTVPESAGGSAGG [r6_553_JUSTAS]	0.115 ± 0.11
SAGGSAGGPKWRRYTIPLDKIKEIDPGGTVTLDDIQDLGLPPDHEIRVVPRPDGEPWVSIEVPYSAGGSAGG [r6_553_TrROS]	0.506 ± 0.14
SAGMVKINVAKLPDGKYVITVVDANDGTPLLELPVDSPEGAEKAAKAIAEELKKKYPDATVEVDYTDFESAG [r5_383_TrMRF]	3.49 ± 0.19
SAGGSAGGSAPPIPIQIKIERPDPDGEKRERKIPVWIPPNNIDEIKDEAEEEGWRVKEVTISAGGSAGGSAG [r3_453_TrROS]	0.29 ± 0.05
SAGGSAGGSAGGVAEWIQEQGFKVKDIPVPRPPNGNPWVKVEVEHDGGKRTYEIPLDEISAGGSAGGSAGGS [r10_35_TrROS]	0.487 ± 0.12

Sequence	folding stability dG unfold [kcal/mol]
SAGGSAGGSAGGNVPIPFLPEGFDVEVKKIEVPTPGKVKLVLVPKNSDEEFELEFSPEELSAGGSAGGSAGG [r7_342_TrMRF]	-0.633 ± 0.2
SAGGSPPYVNISMRRTPNGNMPLKVEIYDKDNEPVAEQEIEIPDMEPGEQWNFTIPIEPNMKLRIESAGGSA [r2_288_TrROS]	0.456 ± 0.13
SAGPLEELLARAERVEEDPSTGKRLVYTSDPELVRAALAEGAPDYTLTESPDDRRSALINFPPLPPGVLSAG [r14_115_JUSTAS]	0.32 ± 0.14
SAGGMILIERDGRERVLEKAREAVEAEAARARAGDVEDAVLLVDLRVVDPVTGEWEELPVLARVPPASAGGS [r8_163_TrMRF]	0.461 ± 0.076
SAGGSAMKIEVEEFPVLVPPELIPELKDKPGAIVKVKKVKFYAEAPEEEREKLKKELEEKTGIKTESAGGSA [r15_347_TrMRF]	0.0727 ± 0.61
SAGGSAGGSAGGSLVSTSPLPSSSTLVTEKGPSPEVTVTVVTVKPGGSRSVTTLPVSESSAGGSAGGSAGGS [r10_140_JUSTAS]	0.474 ± 0.057
SAGGSAGGSAGGSVEIRDARIELGDNTLRIEISFPDGGTRRIEIEVEPVPPLPPSLLDRSAGGSAGGSAGGS [r4_372_TrMRF]	0.109 ± 0.11
SAGGLVREAAAEAGATGVDIREEVPDPNGGTVVTVLPRPGLSPEEAAAVRARIEAAIAEREPGATVVLESAG [r5_101_JUSTAS]	0.161 ± 0.029
SAGGSAGGSAGMKVFIFKDPEKAIEAIKEFAGKNGVKYKIIEIETTPDGYVKIKVEFEPISAGGSAGGSAGG [r11_304_TrMRF]	5.31 ± 0.22
SAGGSAGGSMVVTERSVRPVPRLVRTSDPSTGSSSVHLDPGAVETVRVIEEPPTPELLANTGASAGGSAGGS [r20_172_JUSTAS]	-1.36 ± 0.33
SAGMSSTPQKIVRTTGSTPLPDGSAVSTTTTTYSDGSSTVTTAIPGGLETRATVPPDGTVTTTTAPLLGSAG [r5_168_JUSTAS]	-0.248 ± 0.23
SAGGTTTRTTVYFDDGKVYELTDPEEVEKTIKEKLGKNYKIVSEEEYTEPSPDGPPLPARRLKLKKKSAGGS [r16_408_JUSTAS]	-0.795 ± 0.33
SAGGSAGGSAGGGERRRVLHINPEDGYIQRMEFDPDDGEPTGSETVPFKSPEDALDKLIDSAGGSAGGSAGG [r7_105_TrROS]	0.342 ± 0.14
SAGVEPTPDGKWRIEINPEEGHIRVRMKNGEPHEIPFPEGSLDDFADEIAEKMGFPPDKPFKIDEIEIWSAG [r5_923_TrROS]	-0.0363 ± 0.21
SASLTPVGPGPDSVVTADPSTGKLYRLEPADGRLTVTTTTFAPGPAAPAPTTTTLPLSPEEAAALRALLSAG [r14_245_JUSTAS]	-0.304 ± 0.26
SAGMMRVEVFGDGELLEVTELDGDTVEVPVPPERHRVRVFAPGDDRAAEAEVDPAKGVVVLKVPADARISAG [r5_469_TrMRF]	-0.197 ± 0.24
SAGGSAGGIWIPADEFKGQPIKVRIKHNGNERPIEEVKIKSHPDGFVFIEFPPELPENMKIEIESAGGSAGG [r6_630_TrROS]	0.453 ± 0.12
SAGGSAGGSAGGSSVVIVADSAEEAKAALKELGIKDAKVVPLKPVKVFTDEQLKELKKKSAGGSAGGSAGGS [r4_101_TrROS_Hall]	0.943 ± 0.039
SAGGSAGGSAGIKIYAPGFPGMPVEIERDPDEPNVIKIKIKGPDNGEPQERTFPADDLEISAGGSAGGSAGG [r17_341_TrROS]	0.526 ± 0.074
AARSVDVEVEELSTVTPAGGRTRLLRVRAYVPETGRTAEVPYRAVLLPDGSERPFGTAEELADRIARLLVSS [r1_77_TrMRF]	0.182 ± 0.17
SAGDYDVEKDPDGYRVEHKNGDKRYVPPVPPPIPVVMIPIKDPEDLDEFANELGLNITDISDDWITMPASAG [r5_328_TrROS]	0.422 ± 0.13
SAGGSAGGSARIDFPAIRRLLGSEAPAEDVVEAVEVIAKELAEELNLPDVEVDPRVVAPDELESAGGSAGGS [r12_666_TrMRF]	0.638 ± 0.068
SAGGSAGGMVKTYKTDKETAIELAEKIKKQGVKVEITPHPDSTLLTITINEPKIDPKNSPNIIISAGGSAGG [r6_392_JUSTAS]	0.0843 ± 0.3
